B1: TPR t1 (parent)
chain: GACCAAUCUGCCCUCAGAGCUCGAGAACAUCUUCGGAUGCAGAGGAGGCAGGCUUCGGUGGCGCGAUAGCGCCAACGUCCUCAACCUCCAAUGCAUCCCACCACAUGAUGAUGCCUGAAGAGCCUUGGUUUUUUG

Variants of: B1
Test: polymerase ribozyme fitness, log enrichment relative to wild type (log ratio); higher = more active; in vitro selection for triplet polymerase activity
Summary of the method: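 Mutant libraries for each subunit of a heterodimeric triplet polymerase ribozyme were made by PCR and then transcribed. Each library underwent one round of in vitro selection in triplicate: annealing with a biotinylated primer, the partner subunit and triplets, frozen incubation at −7 °C, gel excision of extended constructs, streptavidin-bead capture and RT-PCR. Input and output libraries were Illumina-sequenced, and only genotypes with ≥10 input reads and ≥1 read per output were kept. Fitness is the logarithm, base 2, of genotype enrichment over wild-type enrichment, computed from inverse-variance-weighted replicate averages.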

Variant | polymerase ribozyme fitness (log ratio)
G93A G113U | -3.19
C62U C97G | -4.18
C56A G71U C85U C102A C124U | -4.27
A84C U96C | -0.0472
A46U G48U | -2.29
G39U | -0.799
G60C U78A G110A A111U C124A U133A | -2.76
A43C A46C G60A U87A C101U | -2.45
G60A A84U C115A U131G | -0.704
G35A G61U | -3.61
G57A C124A | 0.954
C34U G65C G117C A121C | -7.56
U9G U78C A121U | 1.6
U7A G39U G69A | -3.24
C8U C40G G42U C49A U130A | -2.72
U21A C88G | -0.967
C80A A121C | -1.11
C34A C85U A118U U130A U132C | -3.6
G44A C56U C123U G135U | -0.56
C11A C22G G48A C72G A119G | -4.64
C8G G61A U78C U92A | -3.12
A46U A74C U92C | -1.48
C62U C124A | 1.84
G48U G63A | -1.96

Variant | polymerase ribozyme fitness (log ratio)
C3U C101A G117U G135U | -4.63
C20A U32A G35C G71U C115A | -5.14
G48U G93U | -1.29
U9A G19C C85A U112A | -0.364
C28U G117C | -6
U14A G57C G58A G61A A105C U109G | -6.86
C72G G113C U129A | -4.04
A6U G45A A50U G113C | -5.5
C8G G19A A46C G71A | -3.53
A29C G44U C73G C82G U112C C115G | -7.14
U14C A111U | -4.43
A37U C56U C72U | -0.343
A43G C70G G110U | -5.99
C15U A37U U55G C56U | -3.11
C56A A121C | 0.751
U38G A111C | -0.398
U38G C56U C79G U81G U96C C104A G110C | -5.98
C12A A50U G61C U78C C85U C124U | -6.64
G10A A43G C76U C89U A111C | -4
C20U G113U G120U | -3.12
G60U | 0.0514
G17U G48U C56A U78C U87G U112A | -3.06
G47A U87A | -0.715
U9G C13U A91U G113A A119C G128A | -4.02

Variant | polymerase ribozyme fitness (log ratio)
C12G G48A | -0.668
A37C G48A A68G U96A | -3.13
A26U G128C | -4.92
A43G A50G G63C | -3.02
A2C C3G C28G C82G A121C G128C | -4.07
A5U A119G | 0.901
G44A C70G | -4.21
C53G G60A G61C A91C | -3.39
A26U G65A G93C C98U C123U | -6.78
A43C G71U U112C G135A | -1.05
C20A C97A | -5.7
C13A C53U C56U U59G | -2.18
C15A C28U G61C | -5.32
C34A G93C | -3.62
U7A A50U C82U A111C | -1.72
U54G C124U | 1.5
G45U U78A | -1.86
U9A C49U G110A | -1.43
C72U C88U C124A | 0.938
C13U C56A | -0.36
C89A G110C | -5.43
C12U G113C G120U | -3.12
A26U A118C C123U | -3.12
C40A A41G G42A A43G G122U | -3.41

Variant | polymerase ribozyme fitness (log ratio)
C62G G110A | -3.33
A6C A27C G110C U130C | -6.2
C8A U59G G107U | -5.05
G42A G45C | -2.81
G77A U132C | -0.208
U96A G113A | -1.86
C56A U81A A83C | -2.85
G44C A74C A111C | -0.547
G120C G122A | -0.824
A24G U78C C114U C115A | -5.31
C62U A108C G117U C124A | -6.3
U54G G113U | -3.26
C53U G117U | -2.22
G63A U126A | -2.47
G71A U81A A84U | -2.93
A2G C20U G36C C123U | -1.11
A68G C73G U129C | -5.86
G60C G71U G120U U130G | -5.39
C28G G48C A83G A84U G120C | -2.29
U7G C31U G60A | -4.97
C3G C62U G120C | -0.751
A6G A50G U112C | 1.56
U7C C15U G45A U92A | -4.93
C70A G135U | -1.99

Variant | polymerase ribozyme fitness (log ratio)
A37U C86A U112G G128A | -3.56
A43U C114G | -3.27
C12U G45A G51U | -3.98
A6C G107U | -4.64
C15A A37U C76G | -2.94
G60U C79A | -0.593
U21G C22A A74G | -4.4
U78A G113U | -3.98
G39U C56G | -1.37
U9G C64U | 0.223
G42C G69U A91U C102U | -0.697
G47A | -0.989
G61U C115A | 0.264
C34G C53G C72A C104A | -4.72
U33A G44C G57U A121G | -4.61
C70A G120U | -1.5
U7G C13G C40U | 0.145
C70G U92C C123A | -5.06
G69U G117C U130C | -2.79
A5U A46C C53U U96G C102U | -4.66
U87C A90G U96A | 0.000334
A29U U112A U131A | -1.03
C28G G69U | -0.552
G58A C70U C79G A100C | -6.76

Variant | polymerase ribozyme fitness (log ratio)
G35A C56U C72U G113A U133A | -5.8
G44A G71U | -1.33
C13G G127C | -1.12
C4G G10U G63U G69U G120A | 0.883
G117A G127C | -1.7
C72G C114A | -1.55
C20G A75U | -4.41
A46G C82U U106A | -0.902
G17C A84U | -4.87
A111C G113A | -3.44
G23A A43C A84G U87C G117U | -6.59
G58A C70G G120A U129A | -3.9
A2U C8U C11G | -0.458
C11A G42C G51C G57U C62U U78C C89U G113A G122C | -6.22
C11A C31G G47A U92C G120A U131A | -5.58
C22U A43G G61A C115A | -5.11
C31G C72U A95C G113A | -6.94
A18C G48U G57U | -2.85
G47A G60A | 1.12
G10C A41U A50G | -1.93
A75U U81G | -3.97
G47A C64U | -2.13
A18G G19A A43C C56U G110A | -2.58
C82G A119U | -0.606

Variant | polymerase ribozyme fitness (log ratio)
U21C A27G C56A C88A | -4.66
C12U A26U | -2.07
U54A U59A C80A C82G C123U | -2.88
G57U C72U | -0.387
C94A U125G | -1.1
G19C C115G | -2.22
C8U A68G A111C | -3.15
A27U U54A C115A | -3.07
A41G G48U U112C | 0.49
C56U G57U | -0.86
C28A C49U | -4.87
A83C G117A | -1.33
A5C U9G C80U A90U U92A | -2.94
A5C C56U C73A C115G G117A | -7.51
A95U U106C | -1.56
A6U C124U U133G | 0.942
C22U C82A C101A | -4.64
G51C C82A | -4.42
A84G C115U | -2.86
U78A G135U | -0.889
C11A G17U C115G C123G U126C | -3.25
A50C C72G U87G G120C U131A | 0.442
C56G C79A C115A U131A | -0.673
